# Literature values in publication PMC9569990 (International Journal of Molecular Sciences, 2022).
# pKd: −log10 of the molar value.
# Key:
# S100P (Homo sapiens) = S100P (Homo sapiens) (UniProt P25815); conditions: cited from earlier work
# [1] = molecular target: RAGE V domain (Homo sapiens) (UniProt Q15109); conditions: cited from earlier work
# RAGE V domain (Homo sapiens), sequence (Q15109 23-116): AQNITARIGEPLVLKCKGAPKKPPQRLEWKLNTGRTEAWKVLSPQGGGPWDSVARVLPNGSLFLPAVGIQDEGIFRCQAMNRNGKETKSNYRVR
# S100P, sequence (P25815 whole entry): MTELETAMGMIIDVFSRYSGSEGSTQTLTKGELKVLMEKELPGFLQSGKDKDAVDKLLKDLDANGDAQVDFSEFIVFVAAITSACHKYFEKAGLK
# S100P (Homo sapiens), sequence (P25815 whole entry): as above
substance,measurement,setting,value
S100P (from UniProt P25815),pKd,S100P (Homo sapiens),7.19
same,pKd,[1],5.22
